Assay results: US20200369776A1

Molecular target: full-length monkey CD137 on the cell surface (cynomolgus monkey)
Assay: flow cytometry, PMA + ionomycin activated cynomolgus T cells, antibody at 100 nM (Example 4d), Alexa Fluor 647 anti-human Fc; SSC-H against antibody binding

full-length monkey CD137 on the cell surface (cynomolgus monkey), sequence (Q07011 other isoform, or with tags, fused parts or gaps): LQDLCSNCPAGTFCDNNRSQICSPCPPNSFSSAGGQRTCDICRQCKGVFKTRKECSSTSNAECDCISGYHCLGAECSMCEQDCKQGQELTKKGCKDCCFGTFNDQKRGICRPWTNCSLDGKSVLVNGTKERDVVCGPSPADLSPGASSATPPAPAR

Substance: human IgG4 isotype control antibody
- percent of cells in the lower right (antibody-positive) quadrant: 1.5%
